What was measured:
endogenous CaCC = assay: Endogenous Ca2+-activated channel (CaCC) activation in Xenopus oocytes; type: cell-based, Xenopus laevis
LPA1 receptor = LPA1 receptor (Homo sapiens, UniProt Q92633); assay: Intracellular free Ca2+ (Fura-2AM) in LPA1-expressing B103 cells; type: cell-based; design: host or cells: B103 rat neuroblastoma cells
Source text: (§1) LPA family receptors are endogenous to cells of most organs. B103 rat neuroblastoma cells, known as LPA receptor-null cells (Valentine et al., Biochim Biophys Acta 1780. 597-605) were transiently transfected with a plasmid (vector) carrying one of genes coding for LPA1(edg-2), LPA2(edg-4), LPA3(edg-7), LPA4, LPA5 and LPA6 receptors or a plasmid carrying none of them (empty vector). Two or three days after transfection, the cells are suspended, and made permeable. Then, the permeable cells are treated with Fura-2AM, a fluorescent dye binding to calcium, and then with gintonin, followed by spectrofluorephotometry to examine whether gintonin induces an increase in intracellular free Ca^2+ level.
(§2) (1) preparing large quantities of plasmids carrying respective LPA family receptor genes and an empty plasmid carrying none of them through amplification and purification (maxi-preparation); (2) verifying the expression of LPA receptors wherein B103 cells are transfected with haematoglutin (HA)-tagged LPA receptors, and then subjected to Western blotting analysis using an anti-HA primary antibody and a horseradish peroxidase (HRP)-conjugated secondary antibody to develop a color; (3) verifying the expression of LPA receptors wherein B1-3 cells are transfected with haematoglutin (HA)-tagged LPA receptors, and then subjected to confocal laser microscopy using an anti-HA antibody and a fluorescence dye Cy3-conjugated secondary antibody; (4) transfecting the empty plasmid and each of the plasmids carrying LPA family receptor genes into B103 cells; (5) treating the transfected B103 cells with trypsin (0.05% trypsin with EDTA, w/v) 2-3 days post-transfection, to give a cell suspension; (6) culturing the suspended B103 cells with Fura-2AM (2.5 μM); and (7) treating the suspended B103 cells with gintonin and quantifying a change in intracellular free Ca^2+ level in a cuvette by spectrofluorephotometry using Fura-2AM.
(§3) Human LPA (lysophosphatidic acid) receptor subtypes, orphan GPCRs (G protein coupled receptors) and plasmids carrying GPCRs were purchased from Missouri S&T resource Center (www.cDNA.org).
(§4) The transient transfection of LPA receptor subtypes was carried out with the aid of Lipofectamine 2000 of Invitrogen. A plasmid (10.8 μg) carrying each LPA receptor (LPA1, LPA2, LPA3, LPA4, LPA5, and LPA6) was transfected into B103 cells grown in 10-cm dishes, and incubated for 2 days prior for use in experiments.
In this Example, gintonin, or ginsenoside Rb1 or Rg1 was examined for its ability to induce a transient increase of [Ca^2+]i in Fura-2AM-loaded B103 cells which were transfected with LPA receptors and in Fura-2AM-loaded B103 cells which were not transfected with LPA receptors. […]

LPA3 receptor = target: T1, LPA3 receptor (Homo sapiens, UniProt Q9UBY5); assay: Intracellular free Ca2+ (Fura-2AM) in LPA3-expressing B103 cells; type: cell-based
T1 construct: host or cells: B103 rat neuroblastoma cells
T1 sequence (Q9UBY5 1-353): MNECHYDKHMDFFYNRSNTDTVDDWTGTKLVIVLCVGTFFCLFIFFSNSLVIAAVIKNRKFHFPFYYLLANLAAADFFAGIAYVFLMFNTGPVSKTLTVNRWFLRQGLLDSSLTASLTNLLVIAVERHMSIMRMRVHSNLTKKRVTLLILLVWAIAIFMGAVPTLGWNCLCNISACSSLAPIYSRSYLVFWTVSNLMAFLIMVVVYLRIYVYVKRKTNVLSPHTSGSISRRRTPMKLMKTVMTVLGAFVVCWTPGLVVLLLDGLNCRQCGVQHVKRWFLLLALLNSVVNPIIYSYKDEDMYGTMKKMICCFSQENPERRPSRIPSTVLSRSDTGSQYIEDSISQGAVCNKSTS
Source text: as §1, §2, §3, §4
In this Example, gintonin, or ginsenoside Rb1 or Rg1 was examined for its ability to induce a transient increase of [Ca^2+]i in Fura-2AM-loaded B103 cells which were transfected with LPA receptors and in Fura-2AM-loaded B103 cells which were not transfected with LPA receptors. To this end, B103 cells (2˜4×10^6/ml) pre-treated with Fura-2AM were suspended in a 1.5 mM Ca^2+-containing buffer or Ca^2+-free buffer, and incubated 37° C. for 30 min, followed by analyzing intracellular calcium levels in the B103 cells in the presence of gintonin or ginsenosides.
Briefly, B103 cells (1˜2×10^6/ml) were mixed with 2.5 μM Fura 2-AM in a Ca^2+ buffer (pH 7.4) containing NaCl 120 mM, KCl 5 mM, MgCl2 1 mM, CaCl2 1.5 mM, glucose 10 mM, and HEPES 25 mM, and a Ca^2+ free buffer (pH 7.4) containing NaCl 120 mM, KCl 5 mM, MgCl2 1 mM, EGTA 0.2 mM, glucose 10 mM, and HEPES 25 mM at 37° C. for 30 min in water bath with shaking according to the Jørgensen method, and washed three times with Ca^2+ buffer or Ca^2+ free buffer to remove excess Fura-2AM.
[Ca^2+]i was estimated in Fura 2AM-loaded cells in suspension using an RF-5300PC intracellular ion measurement system (Shimadzu Corporation, Japan).
Briefly, Fura 2-AM loaded cells were diluted with an experimental medium to a final density of 2˜4×10^6 cells/mL, and transferred to polystyrene cuvettes (Elkay Ultra-VU). The cells were stirred using Teflon-coated magnets, and the cuvette housing was thermostatically controlled at 37° C. The excitation wavelengths were alternated between 340 and 380 nm under computer control. […]

LPA1 receptor, sequence (Q92633 whole entry): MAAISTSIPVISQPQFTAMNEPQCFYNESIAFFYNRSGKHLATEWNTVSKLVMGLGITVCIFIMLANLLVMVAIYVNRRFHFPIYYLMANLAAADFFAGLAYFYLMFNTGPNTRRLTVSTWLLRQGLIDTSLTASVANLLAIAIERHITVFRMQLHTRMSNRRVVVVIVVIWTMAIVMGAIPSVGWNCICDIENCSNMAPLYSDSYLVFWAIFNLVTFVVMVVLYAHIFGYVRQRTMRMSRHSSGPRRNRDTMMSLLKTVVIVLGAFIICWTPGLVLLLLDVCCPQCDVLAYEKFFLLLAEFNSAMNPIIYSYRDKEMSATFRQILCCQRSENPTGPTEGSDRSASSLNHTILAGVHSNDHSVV

**Q.** What does the source list for Cc1noc(-c2ccc(CSCCC(=O)O)cc2)c1NC(=O)OC(C)c1ccccc1Cl (centres unmarked) [Kil6425]?
**A.** effect on gintonin-induced CaCC activation (endogenous CaCC; Kil6425 10 μM, U73122 1 μM, 2-APB 100 μM, BAPTA 100 μM 3 h): reduced gintonin-induced CaCC activation; effect on gintonin-induced intracellular calcium increase (LPA1 receptor; LPA1-expressing cells treated with antagonist): did not increase in intracellular calcium level even in the presence of gintonin; effect on gintonin-induced intracellular calcium increase (LPA3 receptor; LPA3-expressing cells treated with antagonist): did not increase in intracellular calcium level even in the presence of gintonin

B1: gintonin: ginseng-derived glycolipoprotein; structural protein of ginseng major latex-like protein (MLP151) and ribonuclease-like storage proteins; crude gintonin used in tests (protein)
chain 1: MGLTGKLICQTGIKSDGDVFHELFGTRPHHVPNITPANIQGCDLHEGEFGKVGSVVIWNYSIDGNAMIAKEEIVAIDEEDKSVTFKVVEGHLFEEFKSIVFSVHVDTKGEDNLVTWSIDYEKLNESVKDPTSYLDFLLSVTRDIEAHHLPK
chain 2: RSDYPWAMFALRLQWPAGFCEVNNACDTKSLLNTFTIHGLYPYNAKGTPALYCDGTAFDVNSVSDFLAEMHLAWPSHETNTEDIQFWEHEWKKHGRCSEALLKQTDYFRTALAFRKAFDIVGLLNQEGIYPNNDLYRPKMIKEAIKKHLNAVPEIDFTKNENSEYVLTDINVCVNQQATRFVDCPTDDATDDYRLKFVRLPSKMKFADPRTNSII
**Q.** B1 was tested. Which CaCC activation (endogenous CaCC; gintonin 1 μg/ml, NMDA receptor-expressing Xenopus oocytes) did it give?
**A.** increases CaCC

**Q.** What about the “transient increase of [Ca2+]i when extracellular Ca2+ was depleted” value (LPA1 receptor; Ca2+-free buffer containing 0.2 mM EGTA, LPA1-expressing cells) of the same molecule?
**A.** at a greatly lowered level

**Q.** What about the EC50 (LPA1 receptor; LPA1 receptor, B103 cells, read-out: EC50, LPA receptor-mediated intracellular calcium increase) of the same molecule?
**A.** 0.1 ± 0.02 nM

**Q.** What about the “increase in intracellular calcium level” value (LPA1 receptor; gintonin 1 μg/ml, LPA1-expressing B103 cells) of the same molecule?
**A.** 185.9 ± 12.8 µM

**Q.** What about the “transient increase of [Ca2+]i when extracellular Ca2+ was depleted” value (LPA3 receptor; Ca2+-free buffer containing 0.2 mM EGTA, LPA3-expressing cells) of the same molecule?
**A.** at a greatly lowered level

**Q.** What about the EC50 (LPA3 receptor; LPA3 receptor, B103 cells, read-out: EC50, LPA receptor-mediated intracellular calcium increase) of the same molecule?
**A.** 0.12 ± 0.01 nM

**Q.** What about the “increase in intracellular calcium level” value (LPA3 receptor; gintonin 1 μg/ml, LPA3-expressing B103 cells) of the same molecule?
**A.** 206.5 ± 11.2 µM

**Q.** And the “increase of intracellular calcium level in co-existence with ginsenosides” value (LPA3 receptor; gintonin in the presence of ginsenoside Rb1 or Rg1)?
**A.** induce an increase in intracellular calcium level by activating LPA receptors in spite of co-existence with the ginsenosides

From patent US20140234868A1, “USE FOR GLYCOLIPOPROTEIN GINTONIN, ISOLATED AND IDENTIFIED FROM GINSENG, AS A NATURAL MEDICAL-PLANT DERIVED LIGAND” (KONKUK UNIVERSITY INDUSTRIAL COOPERATION CORP., priority 2011, published 2014)
